Results: patent US20160000910A1

Columns and labels:
[1] = target: Aβ1-42 peptide fraction consisting primarily of monomers (LMW monomer fraction from SEC); test: ELISA on coated fraction; antibody dilution 1:1 (starting dilution 0.5 µg/ml); assay 2
[2] = target: Aβ1-42 peptide fraction enriched in oligomers (high molecular weight fraction from SEC); test: as above
[3] = target: Aβ1-42 peptide fraction consisting primarily of monomers (LMW monomer fraction from SEC); test: ELISA on coated fraction; antibody dilution 1:1 (starting dilution 0.5 µg/ml); assay 3
[4] = target: Aβ1-42 peptide fraction enriched in oligomers (high molecular weight fraction from SEC); test: as above
[5] = target: Aβ1-42 peptide fraction consisting primarily of monomers (LMW monomer fraction from SEC); test: ELISA on coated fraction; antibody dilution 1:2 (starting dilution 0.5 µg/ml); assay 1
[6] = target: Aβ1-42 peptide fraction enriched in oligomers (high molecular weight fraction from SEC); test: as above
[7] = target: Aβ1-42 peptide fraction consisting primarily of monomers (LMW monomer fraction from SEC); test: ELISA on coated fraction; antibody dilution 1:2 (starting dilution 0.5 µg/ml); assay 2
[8] = target: Aβ1-42 peptide fraction enriched in oligomers (high molecular weight fraction from SEC); test: as above
[9] = target: Aβ1-42 peptide fraction enriched in oligomers (high molecular weight fraction from SEC); test: ELISA on coated fraction; antibody dilution 1:4 (starting dilution 0.5 µg/ml); assay 1
[10] = target: Aβ1-42 peptide fraction consisting primarily of monomers (LMW monomer fraction from SEC); test: ELISA on coated fraction; antibody dilution 1:4 (starting dilution 0.5 µg/ml); assay 2
[11] = target: Aβ1-42 peptide fraction enriched in oligomers (high molecular weight fraction from SEC); test: as above
[12] = target: Aβ1-42 peptide fraction consisting primarily of monomers (LMW monomer fraction from SEC); test: ELISA on coated fraction; antibody dilution 1:8 (starting dilution 0.5 µg/ml); assay 1
[13] = target: Aβ1-42 peptide fraction enriched in oligomers (high molecular weight fraction from SEC); test: as above
[14] = target: Aβ1-42 peptide fraction enriched in oligomers (high molecular weight fraction from SEC); test: ELISA on coated fraction; antibody dilution 1:8 (starting dilution 0.5 µg/ml); assay 3
[15] = target: Aβ1-42 peptide fraction consisting primarily of monomers (LMW monomer fraction from SEC); test: ELISA on coated fraction; antibody dilution 1:16 (starting dilution 0.5 µg/ml); assay 3
[16] = target: Aβ1-42 peptide fraction enriched in oligomers (high molecular weight fraction from SEC); test: as above
[17] = target: Aβ1-42 peptide fraction consisting primarily of monomers (LMW monomer fraction from SEC); test: ELISA on coated fraction; antibody dilution 1:32 (starting dilution 0.5 µg/ml); assay 1
[18] = target: Aβ1-42 peptide fraction enriched in oligomers (high molecular weight fraction from SEC); test: as above
[19] = target: Aβ1-42 peptide fraction consisting primarily of monomers (LMW monomer fraction from SEC); test: ELISA on coated fraction; antibody dilution 1:32 (starting dilution 0.5 µg/ml); assay 2
[20] = target: Aβ1-42 peptide fraction enriched in oligomers (high molecular weight fraction from SEC); test: as above
[21] = target: Aβ1-42 peptide fraction consisting primarily of monomers (LMW monomer fraction from SEC); test: ELISA on coated fraction; antibody dilution 1:64 (starting dilution 0.5 µg/ml); assay 1
[22] = target: Aβ1-42 peptide fraction enriched in oligomers (high molecular weight fraction from SEC); test: as above
[23] = target: Aβ1-42 peptide fraction consisting primarily of monomers (LMW monomer fraction from SEC); test: ELISA on coated fraction; antibody dilution 1:64 (starting dilution 0.5 µg/ml); assay 2
[24] = target: Aβ1-42 peptide fraction enriched in oligomers (high molecular weight fraction from SEC); test: as above
[25] = target: Aβ1-42 peptide fraction consisting primarily of monomers (LMW monomer fraction from SEC); test: ELISA on coated fraction; antibody dilution 1:128 (starting dilution 0.5 µg/ml); assay 1
[26] = target: Aβ1-42 peptide fraction enriched in oligomers (high molecular weight fraction from SEC); test: as above
[27] = target: Aβ1-42 peptide fraction consisting primarily of monomers (LMW monomer fraction from SEC); test: ELISA on coated fraction; antibody dilution 1:128 (starting dilution 0.5 µg/ml); assay 2
[28] = target: Aβ1-42 peptide fraction enriched in oligomers (high molecular weight fraction from SEC); test: as above
[29] = target: Aβ1-42 peptide fraction consisting primarily of monomers (LMW monomer fraction from SEC); test: ELISA on coated fraction; antibody dilution 1:16 (starting dilution 0.5 µg/ml); mean of 3 assays
[30] = target: Aβ1-42 peptide fraction enriched in oligomers (high molecular weight fraction from SEC); test: as above
[31] = target: Aβ1-42 peptide fraction consisting primarily of monomers (LMW monomer fraction from SEC); test: ELISA on coated fraction; antibody dilution 1:64 (starting dilution 0.5 µg/ml); mean of 3 assays
[32] = target: Aβ1-42 peptide fraction enriched in oligomers (high molecular weight fraction from SEC); test: as above

Work on control antibody 6E10 yielded an O.D. (O.D. at 405 nm) [1] of 3.77, an O.D. (O.D. at 405 nm) [2] of 3.67 and an O.D. (O.D. at 405 nm) [3] of 4.04. For the same substance, the O.D. (O.D. at 405 nm) [4] was 3.89, the O.D. (O.D. at 405 nm) [5] was 3.3 and the O.D. (O.D. at 405 nm) [6] was 3.39. The O.D. (O.D. at 405 nm) [7] was 3.48, the O.D. (O.D. at 405 nm) [8] was 3.55 and the O.D. (O.D. at 405 nm) [9] was 3.1. It also gave an O.D. (O.D. at 405 nm) [10] of 3.29, an O.D. (O.D. at 405 nm) [11] of 3.37 and an O.D. (O.D. at 405 nm) [12] of 2.67. For the same substance, the O.D. (O.D. at 405 nm) [13] was 2.73, the O.D. (O.D. at 405 nm) [14] was 3.23 and the O.D. (O.D. at 405 nm) [15] was 2.23. It also gave an O.D. (O.D. at 405 nm) [16] of 2.07, an O.D. (O.D. at 405 nm) [17] of 1.18 and an O.D. (O.D. at 405 nm) [18] of 1.27. It also gave an O.D. (O.D. at 405 nm) [19] of 1.34, an O.D. (O.D. at 405 nm) [20] of 1.3 and an O.D. (O.D. at 405 nm) [21] of 0.81. For the same substance, the O.D. (O.D. at 405 nm) [22] was 0.93, the O.D. (O.D. at 405 nm) [23] was 0.94 and the O.D. (O.D. at 405 nm) [24] was 0.88. It also gave an O.D. (O.D. at 405 nm) [25] of 0.64, an O.D. (O.D. at 405 nm) [26] of 0.62 and an O.D. (O.D. at 405 nm) [27] of 0.75. For the same substance, the O.D. (O.D. at 405 nm) [28] was 0.61, the O.D. (mean) (O.D. at 405 nm) [29] was 1.98 and the O.D. (mean) (O.D. at 405 nm) [30] was 1.92. The O.D. (mean) (O.D. at 405 nm) [31] was 0.94 and the O.D. (mean) (O.D. at 405 nm) [32] was 0.92.
